Laboratory results published in patent US20260274985A1 (MYTHIC THERAPEUTICS, published 2026).

T1: Human TROP2 Protein, His Tag (Acro Biosystems) (human, UniProt P09758 27-274)
T1 construct: Soluble analyte of the Octet assay; also called TACSTD2; not shown: His tag
T1 sequence (looked up): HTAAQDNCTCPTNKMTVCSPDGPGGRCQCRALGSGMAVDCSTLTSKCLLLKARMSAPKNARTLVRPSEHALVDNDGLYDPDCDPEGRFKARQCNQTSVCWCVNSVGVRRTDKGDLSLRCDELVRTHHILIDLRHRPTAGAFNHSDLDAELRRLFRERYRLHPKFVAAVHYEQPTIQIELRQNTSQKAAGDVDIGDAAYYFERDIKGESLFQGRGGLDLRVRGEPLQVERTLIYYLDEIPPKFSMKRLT


Biological target: T1, Human TROP2 Protein, His Tag (Acro …)
Assay: BLI (Octet)

Row | Binder | binding result
1 | MYT13162 (antibody, V domains shown, Sacituzumab HC-LC pairing variant; IgG) VH: QVQLQQSGSELKKPGASVKVSCKASGYTFTNYGMNWVKQAPGQGLKWMGWINTYTGEPTHTDDFKGRFAFSLDTSVSTAYLQISSLKADDTAVYFCARGGFGSSYWYFDVWGQGSLVTVSS VL: DIQLTQSPSSLSASVGDRVSITCKASQDVHIAVAWYQQKPGKAPKLLIYSASYRYTGVPDRFSGSGSGTDFTLTISSLQPEDFAVYYCQQHYITPLTFGAGTKVEIK | binds
2 | MYT13164 (antibody, V domains shown, Sacituzumab HC-LC pairing variant; IgG) VH: QVQLQQSGSELKKPGASVKVSCKASGYTFTNYGMNWVKQAPGQGLKWMGWINTYTGEPTYTDHFKGRFAFSLDTSVSTAYLQISSLKADDTAVYFCARGGFGSSYWYFDVWGQGSLVTVSS VL: DIQLTQSPSSLSASVGDRVSITCKASQDVHIAVAWYQQKPGKAPKLLIYSASYRYTGVPDRFSGSGSGTDFTLTISSLQPEDFAVYYCQQHYITPLTFGAGTKVEIK | binds
3 | MYT13169 (antibody, V domains shown, Sacituzumab HC-LC pairing variant; IgG) VH: QVQLQQSGSELKKPGASVKVSCKASGYTFTNYHMNWVKQAPGQGLKWMGWINTYTGEPTYTDDFKGRFAFSLDTSVSTAYLQISSLKADDTAVYFCARGGFGSSYWYFDVWGQGSLVTVSS VL: DIQLTQSPSSLSASVGDRVSITCKASQDVSIAHAWYQQKPGKAPKLLIYSASYRYTGVPDRFSGSGSGTDFTLTISSLQPEDFAVYYCQQHYITPLTFGAGTKVEIK | binds
4 | MYT13166 (antibody, V domains shown, Sacituzumab HC-LC pairing variant; IgG) VH: QVQLQQSGSELKKPGASVKVSCKASGYTFTNYGMNWVKQAPGQGLKWMGWINTYTGEPTYTDDFHGRFAFSLDTSVSTAYLQISSLKADDTAVYFCARGGFGSSYWYFDVWGQGSLVTVSS VL: DIQLTQSPSSLSASVGDRVSITCKASQDVHIAVAWYQQKPGKAPKLLIYSASYRYTGVPDRFSGSGSGTDFTLTISSLQPEDFAVYYCQQHYITPLTFGAGTKVEIK | binds
5 | MYT13163 (antibody, V domains shown, Sacituzumab HC-LC pairing variant; IgG) VH: QVQLQQSGSELKKPGASVKVSCKASGYTFTNYGMNWVKQAPGQGLKWMGWINTYTGEPTYTHDFKGRFAFSLDTSVSTAYLQISSLKADDTAVYFCARGGFGSSYWYFDVWGQGSLVTVSS VL: DIQLTQSPSSLSASVGDRVSITCKASQDVHIAVAWYQQKPGKAPKLLIYSASYRYTGVPDRFSGSGSGTDFTLTISSLQPEDFAVYYCQQHYITPLTFGAGTKVEIK | binds

The remaining lines, values ahead:

Row | binding result | Binder
6 | binds | MYT13165 (antibody, V domains shown, Sacituzumab HC-LC pairing variant; IgG) VH: QVQLQQSGSELKKPGASVKVSCKASGYTFTNYGMNWVKQAPGQGLKWMGWINTYTGEPTYTDDHKGRFAFSLDTSVSTAYLQISSLKADDTAVYFCARGGFGSSYWYFDVWGQGSLVTVSS VL: DIQLTQSPSSLSASVGDRVSITCKASQDVHIAVAWYQQKPGKAPKLLIYSASYRYTGVPDRFSGSGSGTDFTLTISSLQPEDFAVYYCQQHYITPLTFGAGTKVEIK
7 | binds | MYT13167 (antibody, V domains shown, Sacituzumab HC-LC pairing variant; IgG) VH: QVQLQQSGSELKKPGASVKVSCKASGYTFTNYGMNWVKQAPGQGLKWMGWINTYTGEPTYTDDFKHRFAFSLDTSVSTAYLQISSLKADDTAVYFCARGGFGSSYWYFDVWGQGSLVTVSS VL: DIQLTQSPSSLSASVGDRVSITCKASQDVHIAVAWYQQKPGKAPKLLIYSASYRYTGVPDRFSGSGSGTDFTLTISSLQPEDFAVYYCQQHYITPLTFGAGTKVEIK
8 | binds | MYT13168 (antibody, V domains shown, Sacituzumab HC-LC pairing variant; IgG) VH: QVQLQQSGSELKKPGASVKVSCKASGYTFTNHGMNWVKQAPGQGLKWMGWINTYTGEPTYTDDFKGRFAFSLDTSVSTAYLQISSLKADDTAVYFCARGGFGSSYWYFDVWGQGSLVTVSS VL: DIQLTQSPSSLSASVGDRVSITCKASQDVSIAHAWYQQKPGKAPKLLIYSASYRYTGVPDRFSGSGSGTDFTLTISSLQPEDFAVYYCQQHYITPLTFGAGTKVEIK
